Reference: PMC11049809, “Determinants of mer Promoter Activity from Pseudomonas aeruginosa”
Substitutions are numbered along the chain they refer to.

B1: Pmer-M11 (dsDNA)
DNA 1: TTGACTCCGTACATGAGTACGGAATAAGGT
DNA 2: ACCTTATTCCGTACTCATGTACGGAGTCAA
B2: Pmer-M12 (dsDNA)
DNA 1: TTGACTCCGTACATGAGTACGGGTAAGGT
DNA 2: ACCTTACCCGTACTCATGTACGGAGTCAA
B3: Pmer-M14 (dsDNA)
DNA 1: TTGACTCCGTACATGAGTACGGTAAGGT
DNA 2: ACCTTACCGTACTCATGTACGGAGTCAA
B4: Pmer-M1 (dsDNA)
DNA 1: TTGACTCGTACATGAGTACGGAAGTAAGGT
DNA 2: ACCTTACTTCCGTACTCATGTACGAGTCAA
B5: Pmer-M10 (dsDNA)
DNA 1: B1 DNA 1 with A24G
DNA 2: B1 DNA 2 with T7C
B6: Pmer-M7 (dsDNA)
DNA 1: TTGACTCCGTACATGAGACGGAAGTAAGGT
DNA 2: ACCTTACTTCCGTCTCATGTACGGAGTCAA
B7: Pmer-M4 (dsDNA)
DNA 1: TTGACTCCGTACTGAGTACGGAAGTAAGGT
DNA 2: ACCTTACTTCCGTACTCAGTACGGAGTCAA

Target: T1, MerR (Tn501) (Pseudomonas aeruginosa (Tn501), UniProt P0A183 1-144)
T1 sequence: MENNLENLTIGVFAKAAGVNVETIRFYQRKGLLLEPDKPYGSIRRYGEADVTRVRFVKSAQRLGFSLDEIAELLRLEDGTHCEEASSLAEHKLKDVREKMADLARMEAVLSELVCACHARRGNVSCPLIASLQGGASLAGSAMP
Assay: EMSA; 0-600 nM MerR, 30 nM DNA, no Hg stated; 10 mM Tris-HCl pH 8.0, 50 mM KCl, 5 mM MgCl2, 10% glycerol, 25 C 10 min; 8% native PAGE, 80 V 45 min
Conditions: protein: recombinant; chain copies: 2; blunt

| Binder | binding result |
| --- | --- |
| B1 | binds |
| B2 | binds |
| B3 | binds |
| B4 | binds |
| B5 | binds |
| B6 | no binding |
| B7 | no binding |
